Source: publication doi:10.1101/2024.10.07.617058

Target: Twin-Strep-tagged human exocyst Subcomplex-1 (Exoc1:Exoc2:Exoc3:Exoc4) (human) (UniProt Q9NV70)
Assay: SPR

UniProt Q9NV70, sequence (Q9NV70 whole entry, chain 1 of 4): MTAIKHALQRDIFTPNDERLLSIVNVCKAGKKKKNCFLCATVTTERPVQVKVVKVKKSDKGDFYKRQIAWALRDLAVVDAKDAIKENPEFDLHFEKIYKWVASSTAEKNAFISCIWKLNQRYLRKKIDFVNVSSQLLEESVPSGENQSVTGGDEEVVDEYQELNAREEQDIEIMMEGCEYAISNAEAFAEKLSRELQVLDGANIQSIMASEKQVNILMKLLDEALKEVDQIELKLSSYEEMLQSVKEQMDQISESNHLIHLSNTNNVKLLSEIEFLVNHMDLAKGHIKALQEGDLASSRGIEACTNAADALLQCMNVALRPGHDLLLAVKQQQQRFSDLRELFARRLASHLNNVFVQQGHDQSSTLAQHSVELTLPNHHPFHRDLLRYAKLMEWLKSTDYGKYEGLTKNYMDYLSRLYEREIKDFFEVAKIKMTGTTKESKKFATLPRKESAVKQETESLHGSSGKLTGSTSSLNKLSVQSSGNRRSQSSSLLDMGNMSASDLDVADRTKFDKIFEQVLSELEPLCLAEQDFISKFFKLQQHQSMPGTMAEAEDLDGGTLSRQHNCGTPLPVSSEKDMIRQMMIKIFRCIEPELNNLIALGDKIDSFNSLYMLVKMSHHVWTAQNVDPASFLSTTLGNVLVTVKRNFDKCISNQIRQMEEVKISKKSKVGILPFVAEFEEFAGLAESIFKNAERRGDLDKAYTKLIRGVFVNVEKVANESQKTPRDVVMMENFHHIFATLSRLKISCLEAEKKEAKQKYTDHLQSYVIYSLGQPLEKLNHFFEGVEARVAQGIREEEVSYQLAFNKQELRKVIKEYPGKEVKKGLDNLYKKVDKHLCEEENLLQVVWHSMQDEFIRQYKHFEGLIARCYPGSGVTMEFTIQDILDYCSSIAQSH
UniProt Q9NV70, sequence (Q96KP1 whole entry, chain 2 of 4, further chain): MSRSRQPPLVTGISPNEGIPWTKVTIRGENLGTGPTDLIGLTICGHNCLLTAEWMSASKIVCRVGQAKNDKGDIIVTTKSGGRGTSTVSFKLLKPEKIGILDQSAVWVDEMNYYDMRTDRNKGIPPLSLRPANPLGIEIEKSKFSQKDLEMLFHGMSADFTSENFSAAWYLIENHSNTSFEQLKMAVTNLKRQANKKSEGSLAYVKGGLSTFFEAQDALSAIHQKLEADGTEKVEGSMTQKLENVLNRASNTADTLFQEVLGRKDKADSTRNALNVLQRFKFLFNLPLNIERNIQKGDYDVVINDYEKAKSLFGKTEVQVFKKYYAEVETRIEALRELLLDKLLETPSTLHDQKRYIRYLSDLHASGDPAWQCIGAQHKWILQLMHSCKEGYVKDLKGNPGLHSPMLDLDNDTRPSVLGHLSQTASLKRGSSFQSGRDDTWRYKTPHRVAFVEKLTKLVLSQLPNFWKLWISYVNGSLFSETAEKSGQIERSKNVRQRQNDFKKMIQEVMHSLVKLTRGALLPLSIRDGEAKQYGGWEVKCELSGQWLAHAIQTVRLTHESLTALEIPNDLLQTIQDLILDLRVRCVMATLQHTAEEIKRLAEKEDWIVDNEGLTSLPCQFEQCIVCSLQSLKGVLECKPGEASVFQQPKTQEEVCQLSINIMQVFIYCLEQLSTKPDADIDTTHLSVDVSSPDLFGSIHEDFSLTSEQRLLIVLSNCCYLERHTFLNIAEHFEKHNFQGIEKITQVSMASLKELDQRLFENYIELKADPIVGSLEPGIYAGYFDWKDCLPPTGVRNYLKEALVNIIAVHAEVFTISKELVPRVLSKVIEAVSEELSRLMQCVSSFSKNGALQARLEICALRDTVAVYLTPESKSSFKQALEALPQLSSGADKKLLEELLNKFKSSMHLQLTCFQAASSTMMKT
UniProt Q9NV70, sequence (O60645 whole entry, chain 3 of 4, further chain): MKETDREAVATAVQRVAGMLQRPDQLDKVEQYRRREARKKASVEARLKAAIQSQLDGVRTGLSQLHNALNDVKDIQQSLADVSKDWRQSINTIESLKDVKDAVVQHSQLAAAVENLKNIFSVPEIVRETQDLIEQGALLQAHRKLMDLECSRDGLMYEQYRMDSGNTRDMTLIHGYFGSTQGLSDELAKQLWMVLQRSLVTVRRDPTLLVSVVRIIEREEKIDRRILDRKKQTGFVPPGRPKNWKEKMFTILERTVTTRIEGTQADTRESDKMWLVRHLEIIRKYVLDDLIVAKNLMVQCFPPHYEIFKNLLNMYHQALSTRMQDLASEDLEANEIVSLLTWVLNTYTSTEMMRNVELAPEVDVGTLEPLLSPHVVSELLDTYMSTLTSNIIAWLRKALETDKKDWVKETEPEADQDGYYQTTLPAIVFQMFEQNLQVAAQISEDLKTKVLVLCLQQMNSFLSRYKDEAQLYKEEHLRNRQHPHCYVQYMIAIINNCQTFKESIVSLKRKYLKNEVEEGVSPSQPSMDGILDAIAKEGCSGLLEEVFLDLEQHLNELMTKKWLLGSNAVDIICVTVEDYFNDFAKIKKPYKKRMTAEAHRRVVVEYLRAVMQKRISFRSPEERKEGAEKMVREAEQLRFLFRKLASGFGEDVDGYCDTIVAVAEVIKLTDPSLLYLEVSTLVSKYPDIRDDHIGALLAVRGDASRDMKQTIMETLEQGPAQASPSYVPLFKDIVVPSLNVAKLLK
UniProt Q9NV70, sequence (Q96A65 whole entry, chain 4 of 4, further chain): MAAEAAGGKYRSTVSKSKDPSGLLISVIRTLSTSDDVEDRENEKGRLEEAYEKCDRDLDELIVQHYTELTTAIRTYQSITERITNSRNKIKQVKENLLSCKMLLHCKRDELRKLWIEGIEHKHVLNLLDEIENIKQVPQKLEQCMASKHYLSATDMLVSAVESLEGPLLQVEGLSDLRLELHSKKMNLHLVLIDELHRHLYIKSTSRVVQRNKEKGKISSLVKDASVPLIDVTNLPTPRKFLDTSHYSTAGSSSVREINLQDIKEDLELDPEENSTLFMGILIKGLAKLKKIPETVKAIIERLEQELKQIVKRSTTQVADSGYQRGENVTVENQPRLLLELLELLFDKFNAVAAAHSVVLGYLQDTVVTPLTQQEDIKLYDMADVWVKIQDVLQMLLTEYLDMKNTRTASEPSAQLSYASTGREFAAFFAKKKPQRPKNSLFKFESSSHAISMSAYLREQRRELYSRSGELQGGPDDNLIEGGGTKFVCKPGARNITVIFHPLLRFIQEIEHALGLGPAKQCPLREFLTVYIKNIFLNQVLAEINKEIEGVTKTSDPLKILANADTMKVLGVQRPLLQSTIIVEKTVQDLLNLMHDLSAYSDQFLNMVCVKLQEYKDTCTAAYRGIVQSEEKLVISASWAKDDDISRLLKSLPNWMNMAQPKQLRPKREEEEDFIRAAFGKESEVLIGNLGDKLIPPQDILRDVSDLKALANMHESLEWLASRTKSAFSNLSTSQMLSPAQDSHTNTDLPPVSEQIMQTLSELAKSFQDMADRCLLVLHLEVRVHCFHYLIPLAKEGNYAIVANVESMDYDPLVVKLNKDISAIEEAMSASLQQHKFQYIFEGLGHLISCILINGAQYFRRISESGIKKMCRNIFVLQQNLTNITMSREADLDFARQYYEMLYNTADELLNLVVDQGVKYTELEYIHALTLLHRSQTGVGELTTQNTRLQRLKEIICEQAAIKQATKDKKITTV

Kd: 78 nM
Substance: human exocyst Subcomplex-2 (Exoc5:Exoc6:Exoc7:Exoc8) (from UniProt O00471 1-708; Q8TAG9 1-804; Q9UPT5 1-735; Q8IYI6 1-725)
